The results in this text go back to patent US20210380679A1 (INHIBRX BIOSCIENCES, published 2021).

For assay [1], the target named is T1, CD3 on the surface of T cells (human, UniProt P07766 23-207).
T1 construct: whole, on cells; multi-chain complex; also called CD3 epsilon
Kind of assay: flow cytometry, construct titrated on isolated primary T cells, fluorophore-conjugated anti-human IgG Fc secondary. As for the experimental part:
(§1) Binding of exemplary multispecific polypeptide constructs of the disclosure containing an antigen-binding domain directed against DLL3 to CD3 on the surface of primary T cells and to DLL3 expressing cells (SHP-77) was assessed by flow cytometry. […] These binding assays were conducted by flow cytometry, wherein bound constructs were detected using a fluorophore-conjugated anti-human IgG Fc secondary antibody.
On the technique in general: Flow cytometry measures light scatter and fluorescence of single cells or particles in a stream.

Assay [2] has as its target T2, human DLL3 (Delta-like ligand 3) (human, UniProt Q9NYJ7 27-618).
T2 construct: endogenous on SHP-77 cells; also called cell-surface DLL3
T2 sequence: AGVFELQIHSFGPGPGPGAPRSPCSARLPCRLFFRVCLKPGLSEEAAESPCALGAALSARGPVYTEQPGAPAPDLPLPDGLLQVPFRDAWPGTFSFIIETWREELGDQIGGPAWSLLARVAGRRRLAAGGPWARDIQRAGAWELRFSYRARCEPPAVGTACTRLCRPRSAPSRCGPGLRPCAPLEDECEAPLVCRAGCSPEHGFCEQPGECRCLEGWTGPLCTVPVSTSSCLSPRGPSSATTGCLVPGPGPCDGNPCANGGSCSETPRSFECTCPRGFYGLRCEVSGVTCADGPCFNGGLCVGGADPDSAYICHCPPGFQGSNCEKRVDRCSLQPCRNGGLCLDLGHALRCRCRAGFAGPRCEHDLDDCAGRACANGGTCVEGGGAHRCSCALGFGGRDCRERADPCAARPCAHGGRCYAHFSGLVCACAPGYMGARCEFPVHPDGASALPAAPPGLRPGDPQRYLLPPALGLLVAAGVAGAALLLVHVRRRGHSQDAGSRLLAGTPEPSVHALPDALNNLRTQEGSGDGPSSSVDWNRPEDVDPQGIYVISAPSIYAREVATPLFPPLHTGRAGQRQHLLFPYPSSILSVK
Kind of assay: flow cytometry, construct titrated on SHP-77 cells (DLL3 positive), fluorophore-conjugated anti-human IgG Fc secondary. The protocol:
as §1

For assay [3], the target named is T2, human DLL3 (Delta-like ligand 3). Kind of assay: flow cytometry of secreted sdAb-Fc on SHP-77 cells.

T1 sequence (P07766 23-207): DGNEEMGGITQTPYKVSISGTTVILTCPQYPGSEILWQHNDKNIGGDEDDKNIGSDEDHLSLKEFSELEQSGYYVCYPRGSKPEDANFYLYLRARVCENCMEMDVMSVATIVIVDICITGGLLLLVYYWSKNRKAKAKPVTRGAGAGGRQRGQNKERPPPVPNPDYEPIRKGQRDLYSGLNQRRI

B1: cx5800 (bispecific antibody)
chain 1: EVQLVESGGGEVQPGGSLRLSCAASGSIFSINAMGWYRQAPGKQRELVAGFTGDTNTIYAESVKGRFTISRDNAKNTVYLQMSSLRAEDTAVYYCAADVQLFSRDYEFYWGQGTLVTVKPDKTHTCPPCPAPGGPSVFLFPPKPKDTLMISRTPEVTCVVVDVSHEDPEVKFNWYVDGVEVHNAKTKPREEQYNSTYRVVSVLTVLHQDWLNGKEYKCKVSNKALPAPIEKTISKAKGQPREPQVYTLPPCRDELTKNQVSLWCLVKGFYPSDIAVEWESNGQPENNYKTTPPVLDSDGSFFLYSKLTVDKSRWQQGNVFSCSVMHEALHNHYTQKSLSLSPTGGGGGSGGGGGSGGGGGSEVQLVESGGGLVQPGGSLRLSCAASGFTFNTYAMNWVRQAPGKCLEWVARIRSKYNNYATYYADSVKGRFTISRDDAKNTLYLQMSSLRAEDTAVYYCVRHGNFGNSYVSWFAYWGQGTLVTVKP
chain 2: DKTHTCPPCPAPGGPSVFLFPPKPKDTLMISRTPEVTCVVVDVSHEDPEVKFNWYVDGVEVHNAKTKPREEQYNSTYRVVSVLTVLHQDWLNGKEYKCKVSNKALPAPIEKTISKAKGQPREPQVCTLPPSRDELTKNQVSLSCAVKGFYPSDIAVEWESNGQPENNYKTTPPVLDSDGSFFLVSKLTVDKSRWQQGNVFSCSVMHEALHNRYTQKSLSLSPTGGGGGSGGGGGSGGGGGSQAVVTQEPSLTVSPGGTVTLTCGSSTGAVTTSNYANWVQQKPGQAFRGLIGGTNKRAPGVPARFSGSLLGGKAALTISGAQPEDEADYYCALWYSNHWVFGCGTKLEIKEVQLLESGGGEVQPGGSLRLSCAASGFSFSINAMGWYRQAPGKRREFVAAIESGRNTVYAESVKGRFTISRDNAKNTVYLQMSSLRAEDTAVYYCGLLKGNRVVSPSVAYWGQGTLVTVKP
notes: monovalent for DLL3; junction linkers not placed
Consider B1, for which the results for the binding result in assay [1] and in assay [2] were “no binding (tested: about 67 nM)” and “binds”, respectively.

B2: cx5801 (bispecific antibody)
chain 1: DKTHTCPPCPAPGGPSVFLFPPKPKDTLMISRTPEVTCVVVDVSHEDPEVKFNWYVDGVEVHNAKTKPREEQYNSTYRVVSVLTVLHQDWLNGKEYKCKVSNKALPAPIEKTISKAKGQPREPQVYTLPPCRDELTKNQVSLWCLVKGFYPSDIAVEWESNGQPENNYKTTPPVLDSDGSFFLYSKLTVDKSRWQQGNVFSCSVMHEALHNHYTQKSLSLSPTGGGGGSGGGGGSGGGGGSEVQLVESGGGLVQPGGSLRLSCAASGFTFNTYAMNWVRQAPGKCLEWVARIRSKYNNYATYYADSVKGRFTISRDDAKNTLYLQMSSLRAEDTAVYYCVRHGNFGNSYVSWFAYWGQGTLVTVKPEVQLVESGGGEVQPGGSLRLSCGPSEIITSDKSMGWVRQAPGKQRNLVAGISNVGSTNYAQSVKGRFTISRDNAKNTVYLQMSSLRAEDTAVYYCYARDFENEYWGQGTLVTVKP
chain 2: B1 chain 2
notes: as for B1
In the case of B2, the binding result in assay [1] is listed as “no binding (tested: about 67 nM)”; in assay [2], “binds”.

B3: 6A1 (Fc fusion)
VHH: QVQLVQSGGGLVQAGGSLRLSCAASGFSLDDYTIGWFRQAPGKEREGVSCISSSGGSTVHADSVKGRFTISRDNAKNTVWLQMNSLKPEDTAVYYCATWCGVATMTEDLPFDYWGQGTLVTVKP
notes: tested as VHH-human Fc; Fc not specified
Take B3: the binding result in assay [3] was “binds”.
